The labels stand for the following.
B1: Exo70-Flag [rat] / HA-Exo84 [not stated] (parent complex)
chain 1: MIPPQEASARRREIEDKLKQEEETLSFIRDSLEKSDQLTKNMVSILSSFESRLMKLENSIIPVHKQTENLQRLQENVEKTLSCLDHVISYYHVASDTEKIIREGPTGRLEEYLGSMAKIQKAVEYFQDNSPDSPELNKVKLLFERGKESLESEFRSLMTRHSKVISPVLVLDLISADDELEVQEDVVLEHLPESVLQDVIRISRWLVEYGRNQDFMNVYYQIRSSQLDRSIKGLKEHFRKSSSSSGVPYSPAIPNKRKDTPTKKPIKRPGRDDMLDVETDAYIHCVSAFVRLAQSEYQLLMGIIPEHHQKKTFDSLIQDALDGLMLEGENIVSAARKAIIRHDFSTVLTVFPILRHLKQTKPEFDQVLQGTAASTKNKLPGLITSMETIGAKALEDFADNIKNDPDKEYNMPKDGTVHELTSNAILFLQQLLDFQETAGAMLASQETSSSATSYNSEFSKRLLSTYICKVLGNLQLNLLSKSKVYEDPALSAIFLHNNYNYILKSLEKSELIQLVAVTQKTAERSYREHIEQQIQTYQRSWLKVTDYIAEKNLPVFQPGVKLRDKERQMIKERFKGFNDGLEELCKIQKAWAIPDTEQRDKIRQAQKSIVKETYGAFLHRYSSVPFTKNPEKYIKYRVEQVGDMIDRLFDTSA
chain 2: MSDSGASRLRRQLESGGFEARLYVKQLSQQSDGDRDLQEHRQRVQALAEETAQNLKRNVYQNYRQFIETAREISYLESEMYQLSHLLTEQKSSLESIPLALLPAAAAGASTGEDTAGAGPRERGAAQAGFLPGPAGVPREGPGTGEEGKQRTLTTLLEKVEGCRDLLETPGQYLVYNGDLVEYEADHMAQLQRVHGFLMNDCLLVATWLPQRRGMYRYNALYPLDRLAVVNVKDNPPMKDMFKLLMFPESRIFQAENAKIKREWLEVLEETKRALSDKRRREQEEAAALRAPPPVTSKGSNPFEDEAEEELATPEAEEEKVDLSMEWIQELPEDLDVCIAQRDFEGAVDLLDKLNHYLEDKPSPPSVKELRAKVDERVRQLTEVLVFELSPDRSLRGGPKATRRAVSQLIRLGQCTKACELFLRNRAAAVHTAIRQLRIEGATLLYIHKLCHVFFTSLLETAREFETDFAGTDSGCYSAFVVWARSAMGMFVDAFSKQVFDSKESLSTAAECVKVAKEHCQQLGEIGLDLTFIIHALLVKDIQGALLSYKEIIIEATKHRNSEEMWRRMNLMTPEALGKLKEEMRSCGVSNFEQYTGDDCWVNLSYTVVAFTKQTMGFLEEALKLYFPELHMVLLESLVEVILVAVQHVDYSLRCEQDPEKKTFIRQNASFLYDTVLPVVERRFEEGVGKPAKQLQDLRNASRLLRVNPESTTSVV

Consider one variant from publication PMC6949295 (2020).

The variants in this experiment derive from B1. Briefly: co-immunoprecipitation (IP: HA, blot: Flag); 293T cells; parent: 0.13.
Turning to chain 1 S47D, chain 1 S59D, chain 1 S89D, the response was 0 relative band intensity.
